The values that follow come from patent publication EP2620453B1.

The target in test [1] is Stx1 (type-I Shiga toxin, recombinant holotoxin) (EHEC O157:H7) (UniProt P08026). In words: ELISA, plates coated with Stx1, serum titer. A general note: An ELISA detects its analyte on a solid surface through an enzyme-linked reagent.
For test [2], the target named is Stx2 (type-II Shiga toxin, recombinant holotoxin) (EHEC O157:H7) (UniProt P09386). In words: ELISA, plates coated with Stx2, serum titer.

As to “serum of the placebo control PBS group (BALB/c mice) (antibody)”, the titer of serum IgA and IgG in test [1] and in test [2] was less than 2 in each case.
